Experimental data published in FireProtDB (doi:10.1016/0022-2836(91)90725-l).

B1: Ribonuclease, P00648 (parent)
chain: MMKMEGIALKKRLSWISVCLLVLVSAAGMLFSTAAKTETSSHKAHTEAQVINTFDGVADYLQTYHKLPDNYITKSEAQALGWVASKGNLADVAPGKSIGGDIFSNREGKLPGKSGRTWREADINYTSGFRNSDRILYSSDWLIYKTTDHYQTFTKIR

Variants of: B1
Conditions: Bacillus amyloliquefaciens; pH 6.3; 25 °C; Urea; Fluorescence; MES 1.00 M; NaCl 613 mM; reversible: yes; structure 1BNI; whole UniProt chain shown

Row | Variant | ddG of mutation (higher = less stable) | denaturant m value | denaturant midpoint (higher = more stable) | unfolding free energy
1 | MMKMEGIALKKRLSWISVCLLVLVSAAGMLFSTAAKTETSSHKAHTEAQVINTFDGVADYLQTFHKLPDNYITKSEAQALGWVASKGNLADVAPGKSIGGDIFSNREGKLPGKSGRTWREADINYTSGFRNSDRILYSSDWLIYKTTDHYQTFTKIR | 0.58 kcal/mol | 2.16 kcal/mol/M | 4.43 M | 9.57 kcal/mol
2 | MMKMEGIALKKRLSWISVCLLVLVSAAGMLFSTAAKTETSSHKAHTEAQVINTFDGVADFLQTFHKLPDNYITKSEAQALGWVASKGNLADVAPGKSIGGDIFSNREGKLPGKSGRTWREADINYTSGFRNSDRILYSSDWLIYKTTDHYQTFTKIR | 1.23 kcal/mol | 2.08 kcal/mol/M | 4.29 M | 8.92 kcal/mol
3 | MMKMEGIALKKRLSWISVCLLVLVSAAGMLFSTAAKTETSSHKAHTEAQVINTFDGVADALQTYHKLPDNYITKSEAQALGWVASKGNLADVAPGKSIGGDIFSNREGKLPGKSGRTWREADINYTSGFRNSDRILYSSDWLIYKTTDHYQTFTKIR | 3.69 kcal/mol | 2.26 kcal/mol/M | 2.86 M | 6.46 kcal/mol
4 | MMKMEGIALKKRLSWISVCLLVLVSAAGMLFSTAAKTETSSHKAHTEAQVINTFDGVADFLQTYHKLPDNYITKSEAQALGWVASKGNLADVAPGKSIGGDIFSNREGKLPGKSGRTWREADINYTSGFRNSDRILYSSDWLIYKTTDHYQTFTKIR | 0.63 kcal/mol | 2.17 kcal/mol/M | 4.38 M | 9.52 kcal/mol
5 | MMKMEGIALKKRLSWISVCLLVLVSAAGMLFSTAAKTETSSHKAHTEAQVINTFDGVADALQTAHKLPDNYITKSEAQALGWVASKGNLADVAPGKSIGGDIFSNREGKLPGKSGRTWREADINYTSGFRNSDRILYSSDWLIYKTTDHYQTFTKIR | 4.76 kcal/mol | 2.22 kcal/mol/M | 2.43 M | 5.39 kcal/mol
